B1: GLTSCR2 (parent)
chain: YNPSFEDHQTLLSAAHEVELQRQK
B2: ZNF193 (parent)
chain: QKRYHCKECGKVFSQSAGLIQHQR

Variants of: B1
Test: protein stability index of a GFP-peptide fusion (GPS, HEK-293T) (PSI 1-6); higher = more stable
Conditions: c terminus: a fixed tail appended
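Further: lentivirally expressed fusions sorted by FACS into six bins by GFP to DsRed ratio, PSI derived from sequencing read proportions per bin multiplied by bin number.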

Variant	protein stability index
YNPSFEDHQTLLSAAHEVELQRQM	3.28
YNPSFEDHQTLLSAAHEVELQRQR	3.21
YNPSFEDHQTLLSAAHEVELQRQP	3.33
YNPSFEDHQTLLSAAHEVELQRQT	3.98
YNPSFEDHQTLLSAAHEVELQRQI	3.33
YNPSFEDHQTLLSAAHEVELQRQQ	3.81
YNPSFEDHQTLLSAAHEVELQRQS	3.97
YNPSFEDHQTLLSAAHEVELQRQH	3.23
YNPSFEDHQTLLSAAHEVELQRQE	4.36
YNPSFEDHQTLLSAAHEVELQRQL	3.48
YNPSFEDHQTLLSAAHEVELQRQY	3.18
YNPSFEDHQTLLSAAHEVELQRQF	2.66
YNPSFEDHQTLLSAAHEVELQRQW	2.79
YNPSFEDHQTLLSAAHEVELQRQV	3.31
YNPSFEDHQTLLSAAHEVELQRQG	3.78
YNPSFEDHQTLLSAAHEVELQRQN	3.96

Variants of: B2
Test: as above
Conditions: c terminus: a fixed tail appended

Variant	protein stability index
QKRYHCHECGKVFSQSAGLIQHQR	2.94
QKRYHCDECGKVFSQSAGLIQHQR	3.15
QKRYHCIECGKVFSQSAGLIQHQR	2.69
QKRYHCNECGKVFSQSAGLIQHQR	3.23
QKRYHCRECGKVFSQSAGLIQHQR	2.66
QKRYHCYECGKVFSQSAGLIQHQR	3.1
QKRYHCPECGKVFSQSAGLIQHQR	3.33
QKRYHCQECGKVFSQSAGLIQHQR	3.15
QKRYHCFECGKVFSQSAGLIQHQR	2.53
QKRYHCGECGKVFSQSAGLIQHQR	2.92
QKRYHCAECGKVFSQSAGLIQHQR	2.95
QKRYHCVECGKVFSQSAGLIQHQR	2.99
QKRYHCWECGKVFSQSAGLIQHQR	2.49
QKRYHCEECGKVFSQSAGLIQHQR	3.52
QKRYHCMECGKVFSQSAGLIQHQR	2.6
QKRYHCTECGKVFSQSAGLIQHQR	2.74
QKRYHCSECGKVFSQSAGLIQHQR	3.35
QKRYHCCECGKVFSQSAGLIQHQR	2.65
QKRYHCLECGKVFSQSAGLIQHQR	2.95
QKRYHAKECGKVFSQSAGLIQHQR	2.63
QKRYHKKECGKVFSQSAGLIQHQR	2.69
QKRYHYKECGKVFSQSAGLIQHQR	1.73
QKRYHSKECGKVFSQSAGLIQHQR	2.88
QKRYHVKECGKVFSQSAGLIQHQR	2.8
QKRYHRKECGKVFSQSAGLIQHQR	2.6
QKRYHHKECGKVFSQSAGLIQHQR	2.24

Variant	protein stability index
QKRYHMKECGKVFSQSAGLIQHQR	2.75
QKRYHWKECGKVFSQSAGLIQHQR	1.96
QKRYHPKECGKVFSQSAGLIQHQR	2.18
QKRYHQKECGKVFSQSAGLIQHQR	2.28
QKRYHLKECGKVFSQSAGLIQHQR	2.31
QKRYHTKECGKVFSQSAGLIQHQR	2.83
QKRYHNKECGKVFSQSAGLIQHQR	2.74
QKRYHEKECGKVFSQSAGLIQHQR	3.74
QKRYHIKECGKVFSQSAGLIQHQR	2.12
QKRYHGKECGKVFSQSAGLIQHQR	2.62
QKRYHFKECGKVFSQSAGLIQHQR	2.08
QKRYHDKECGKVFSQSAGLIQHQR	3.05
YKRYHCKECGKVFSQSAGLIQHQR	2.2
GKRYHCKECGKVFSQSAGLIQHQR	2.81
VKRYHCKECGKVFSQSAGLIQHQR	3.05
KKRYHCKECGKVFSQSAGLIQHQR	3.1
FKRYHCKECGKVFSQSAGLIQHQR	2.45
NKRYHCKECGKVFSQSAGLIQHQR	2.32
RKRYHCKECGKVFSQSAGLIQHQR	3.19
CKRYHCKECGKVFSQSAGLIQHQR	2.42
TKRYHCKECGKVFSQSAGLIQHQR	2.98
PKRYHCKECGKVFSQSAGLIQHQR	3.16
AKRYHCKECGKVFSQSAGLIQHQR	2.67
SKRYHCKECGKVFSQSAGLIQHQR	2.88
IKRYHCKECGKVFSQSAGLIQHQR	3.03
WKRYHCKECGKVFSQSAGLIQHQR	1.9

Variant	protein stability index
HKRYHCKECGKVFSQSAGLIQHQR	2.73
MKRYHCKECGKVFSQSAGLIQHQR	2.45
EKRYHCKECGKVFSQSAGLIQHQR	3.7
DKRYHCKECGKVFSQSAGLIQHQR	3.71
LKRYHCKECGKVFSQSAGLIQHQR	2.62
QKRYHCKKCGKVFSQSAGLIQHQR	3.5
QKRYHCKLCGKVFSQSAGLIQHQR	2.75
QKRYHCKYCGKVFSQSAGLIQHQR	2.67
QKRYHCKMCGKVFSQSAGLIQHQR	2.6
QKRYHCKGCGKVFSQSAGLIQHQR	2.66
QKRYHCKRCGKVFSQSAGLIQHQR	3.12
QKRYHCKFCGKVFSQSAGLIQHQR	2.56
QKRYHCKHCGKVFSQSAGLIQHQR	3.81
QKRYHCKSCGKVFSQSAGLIQHQR	2.59
QKRYHCKVCGKVFSQSAGLIQHQR	2.68
QKRYHCKTCGKVFSQSAGLIQHQR	2.94
QKRYHCKICGKVFSQSAGLIQHQR	2.98
QKRYHCKPCGKVFSQSAGLIQHQR	2
QKRYHCKACGKVFSQSAGLIQHQR	2.75
QKRYHCKQCGKVFSQSAGLIQHQR	2.91
QKRYHCKWCGKVFSQSAGLIQHQR	2.71
QKRYHCKDCGKVFSQSAGLIQHQR	2.93
QKRYHCKNCGKVFSQSAGLIQHQR	2.99
QKRYHCKCCGKVFSQSAGLIQHQR	4.26
QKRHHCKECGKVFSQSAGLIQHQR	2.47
QKRCHCKECGKVFSQSAGLIQHQR	2.41

Source: the supplement of paper PMC10567573
